In paper PMC3615140 (Molecular cell, 2013):

How the values were obtained:
FLAG-Set1 (full length) [1] = target: T1, FLAG-Set1 (full length) (S. cerevisiae, UniProt P38827 1-1080); test: affinity co-purification by the FLAG tag
T1 sequence (looked up): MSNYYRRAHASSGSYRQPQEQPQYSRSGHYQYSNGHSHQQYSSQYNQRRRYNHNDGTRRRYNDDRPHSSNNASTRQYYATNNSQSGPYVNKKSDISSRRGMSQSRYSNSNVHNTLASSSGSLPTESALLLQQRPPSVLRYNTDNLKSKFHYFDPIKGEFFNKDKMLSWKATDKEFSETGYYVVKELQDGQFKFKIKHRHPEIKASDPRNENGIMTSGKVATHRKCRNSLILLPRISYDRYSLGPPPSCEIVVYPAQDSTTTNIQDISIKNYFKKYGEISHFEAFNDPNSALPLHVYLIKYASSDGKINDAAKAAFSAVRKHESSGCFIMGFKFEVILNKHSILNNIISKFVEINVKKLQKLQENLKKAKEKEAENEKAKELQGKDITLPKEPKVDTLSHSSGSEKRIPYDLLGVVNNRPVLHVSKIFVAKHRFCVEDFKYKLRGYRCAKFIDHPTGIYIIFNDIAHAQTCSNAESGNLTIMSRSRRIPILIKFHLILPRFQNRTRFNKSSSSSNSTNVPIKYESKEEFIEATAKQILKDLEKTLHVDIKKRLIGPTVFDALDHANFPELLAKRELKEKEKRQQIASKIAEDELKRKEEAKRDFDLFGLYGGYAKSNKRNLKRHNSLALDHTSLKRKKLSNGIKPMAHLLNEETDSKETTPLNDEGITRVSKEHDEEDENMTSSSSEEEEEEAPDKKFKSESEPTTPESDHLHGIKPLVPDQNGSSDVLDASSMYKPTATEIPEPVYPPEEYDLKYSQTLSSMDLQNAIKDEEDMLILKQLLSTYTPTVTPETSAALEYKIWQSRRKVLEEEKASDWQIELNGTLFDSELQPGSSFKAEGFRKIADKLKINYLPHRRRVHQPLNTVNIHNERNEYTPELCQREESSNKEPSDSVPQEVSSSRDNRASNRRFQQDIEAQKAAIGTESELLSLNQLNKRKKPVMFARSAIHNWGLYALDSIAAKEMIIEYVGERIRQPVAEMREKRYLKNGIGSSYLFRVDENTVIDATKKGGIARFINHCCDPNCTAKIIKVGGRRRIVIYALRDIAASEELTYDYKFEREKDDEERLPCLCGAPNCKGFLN

FLAG-Set1 (full length) [2] = target: T1, FLAG-Set1 (full length); test: SEC
FLAG-Set1 (full length) [3] = target: T1, FLAG-Set1 (full length); test: affinity co-purification by the FLAG tag; remark: listed apart in the source
FLAG-Swd2 (purified) = target: T2, FLAG-Swd2 (purified) (S. cerevisiae, UniProt P36104 1-329); test: pull-down
T2 sequence (looked up): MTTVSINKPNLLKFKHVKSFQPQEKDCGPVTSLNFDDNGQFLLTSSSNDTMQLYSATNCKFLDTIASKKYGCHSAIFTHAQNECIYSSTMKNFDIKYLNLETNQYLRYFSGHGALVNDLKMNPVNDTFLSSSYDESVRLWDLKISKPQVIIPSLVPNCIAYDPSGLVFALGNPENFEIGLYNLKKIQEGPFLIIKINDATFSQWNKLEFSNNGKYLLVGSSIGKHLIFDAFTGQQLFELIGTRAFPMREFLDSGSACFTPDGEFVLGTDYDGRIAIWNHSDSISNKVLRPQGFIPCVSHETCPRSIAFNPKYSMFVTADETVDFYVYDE

FLAG-Spp1 (purified) = target: T3, FLAG-Spp1 (purified) (S. cerevisiae, UniProt Q03012 1-353); test: pull-down
T3 sequence (looked up): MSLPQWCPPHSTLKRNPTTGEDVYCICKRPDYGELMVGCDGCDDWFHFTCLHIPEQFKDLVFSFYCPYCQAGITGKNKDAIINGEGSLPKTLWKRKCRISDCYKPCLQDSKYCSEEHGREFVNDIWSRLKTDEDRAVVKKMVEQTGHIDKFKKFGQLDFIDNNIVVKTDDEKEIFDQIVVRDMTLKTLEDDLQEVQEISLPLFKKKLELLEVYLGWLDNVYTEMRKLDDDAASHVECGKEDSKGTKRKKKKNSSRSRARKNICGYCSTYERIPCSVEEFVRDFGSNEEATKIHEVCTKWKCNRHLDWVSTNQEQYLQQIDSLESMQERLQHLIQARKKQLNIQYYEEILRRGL

[4] = target: T4, GST-Set1 fragment, residues 356–568 (S. cerevisiae, UniProt P38827 356-568); test: pull-down
T4 sequence (looked up): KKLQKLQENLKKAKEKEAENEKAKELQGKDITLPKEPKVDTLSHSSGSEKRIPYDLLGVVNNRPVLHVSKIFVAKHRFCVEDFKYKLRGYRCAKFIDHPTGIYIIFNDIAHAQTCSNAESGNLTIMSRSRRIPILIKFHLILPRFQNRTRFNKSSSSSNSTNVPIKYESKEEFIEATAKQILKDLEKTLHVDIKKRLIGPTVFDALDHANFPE

B1: Swd1 (natural protein, S. cerevisiae, UniProt P39706 1-426, looked up)
chain: MNILLQDPFAVLKEHPEKLTHTIENPLRTECLQFSPCGDYLALGCANGALVIYDMDTFRPICVPGNMLGAHVRPITSIAWSPDGRLLLTSSRDWSIKLWDLSKPSKPLKEIRFDSPIWGCQWLDAKRRLCVATIFEESDAYVIDFSNDPVASLLSKSDEKQLSSTPDHGYVLVCTVHTKHPNIIIVGTSKGWLDFYKFHSLYQTECIHSLKITSSNIKHLIVSQNGERLAINCSDRTIRQYEISIDDENSAVELTLEHKYQDVINKLQWNCILFSNNTAEYLVASTHGSSAHELYIWETTSGTLVRVLEGAEEELIDINWDFYSMSIVSNGFESGNVYVWSVVIPPKWSALAPDFEEVEENVDYLEKEDEFDEVDEAEQQQGLEQEEEIAIDLRTREQYDVRGNNLLVERFTIPTDYTRIIKMQSS
- binding result (FLAG-Set1 (full length) [1]): binds

B2: Spp1 (natural protein, S. cerevisiae, UniProt Q03012 1-353, looked up)
chain: T3 sequence (looked up)
- binding result (FLAG-Set1 (full length) [2]): binds

B3: Swd2 (natural protein, S. cerevisiae, UniProt P36104 1-329, looked up)
chain: T2 sequence (looked up)
- binding result (FLAG-Set1 (full length) [2]): binds

B4: Shg1 (natural protein, S. cerevisiae, UniProt P38337 1-142, looked up)
chain: MAYNQEDSKRLSDKYKKEGHFDKLKREILSNPWNNTEENSESFEQALRKRVASTVKEMVNEDEELIFKNRGLTSALIESQLVKDNYLKLGSKMEGDNGDGEKKFDLDVYVRSKLQDPKLLEMIKGQLQETLNSYEEEANGST
- binding result (FLAG-Set1 (full length) [2]): binds

B5: Swd3 (natural protein, S. cerevisiae, UniProt P38123 1-315, looked up)
chain: MFQFVTPVGTQNGLKATCAKISPDGQFLAITQGLNILIYDINRRTVSQTLVTSHARPFSELCWSPDGQCIATASDDFSVEIIHLSYGLLHTFIGHTAPVISLTFNRKGNLLFTSSMDESIKIWDTLNGSLMKTISAHSEAVVSVDVPMNDSSILSSGSYDGLIRIFDAETGHCLKTLTYDKDWKRENGVVPISQVKFSENARYLLVKSLDGVVKIWDCIGGCVVRTFQVQPLEKGVLHHSCGMDFLNPEDGSTPLVISGYENGDIYCWNSDTKSLLQLLDGSLYHHSSPVMSIHCFGNIMCSLALNGDCCLWRWV
- binding result (FLAG-Set1 (full length) [3]): binds

B6: GST-Set1 fragment, residues 1–229 (domain or fragment, S. cerevisiae, UniProt P38827 1-229, looked up)
chain: MSNYYRRAHASSGSYRQPQEQPQYSRSGHYQYSNGHSHQQYSSQYNQRRRYNHNDGTRRRYNDDRPHSSNNASTRQYYATNNSQSGPYVNKKSDISSRRGMSQSRYSNSNVHNTLASSSGSLPTESALLLQQRPPSVLRYNTDNLKSKFHYFDPIKGEFFNKDKMLSWKATDKEFSETGYYVVKELQDGQFKFKIKHRHPEIKASDPRNENGIMTSGKVATHRKCRNSL
- binding result (FLAG-Swd2 (purified)): binds

B7: GST-n-SET (Set1 residues 762–937) (domain or fragment, S. cerevisiae, UniProt P38827 762-937, looked up)
chain: MDLQNAIKDEEDMLILKQLLSTYTPTVTPETSAALEYKIWQSRRKVLEEEKASDWQIELNGTLFDSELQPGSSFKAEGFRKIADKLKINYLPHRRRVHQPLNTVNIHNERNEYTPELCQREESSNKEPSDSVPQEVSSSRDNRASNRRFQQDIEAQKAAIGTESELLSLNQLNKRK
- binding result (FLAG-Spp1 (purified)): binds

B8: FLAG-Shg1 (purified) (natural protein, S. cerevisiae, UniProt P38337 1-142, looked up)
chain: B4 chain
- binding result [4]: binds
